Experimental data taken from publication PMC5465072.

Columns and labels:
Details in all cases: modification not given
[1] = molecular target: T1, CMG2 38-218 (Homo sapiens), P58335; assay: microscale thermophoresis
T1 chain: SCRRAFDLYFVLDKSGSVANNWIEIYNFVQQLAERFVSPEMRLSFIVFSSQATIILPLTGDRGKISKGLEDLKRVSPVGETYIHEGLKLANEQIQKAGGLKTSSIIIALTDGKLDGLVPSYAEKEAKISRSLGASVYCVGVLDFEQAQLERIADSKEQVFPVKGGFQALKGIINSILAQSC

[2] = molecular target: T1, CMG2 38-218 (Homo sapiens), P58335; assay: sandwich ELISA (competition with His6-PA 596-735)
[3] = molecular target: T1, CMG2 38-218 (Homo sapiens), P58335; assay: sandwich ELISA (competition with His6-PA 488-735)
[4] = molecular target: T2, Protective antigen (PA) 488-735 (Bacillus anthracis), P13423; assay: ELISA
[5] = molecular target: T2, Protective antigen (PA) 488-735 …

Binder: CLRFT
- Kd [1]: 30.2 µM
- IC50 [2]: 71.3 µM
- IC50 [3]: 77.1 µM

Binder: HPCNAMF [HPCNAMF (scrambled CMNHFPA)]
- IC50 [4]: 153 µM

Binder: CMNHFPA
- Kd [5]: 38.2 µM
- IC50 [4]: 49.8 µM
